This note sets out measurements from PMC11452378 (Scientific Reports, 2024).

In experiment [1] the target is extracellular fragment of FcγRIIIa (158V). As to the kind of experiment: BLI; biotinylated FcγR immobilized on Streptavidin (SA) biosensors (Octet Red384); antibodies in solution as serial dilutions; PBS pH 7.4 0.1% BSA 0.1% Tween-20; at least triplicate. For orientation: Biolayer interferometry detects binding as a change in optical thickness at a sensor tip.
Experiment [2] has as its target extracellular fragment of FcγRIIa (131R). Described as above.
Experiment [3] addresses extracellular fragment of FcRn (UniProt P55899). As to the kind of experiment: BLI; biotinylated FcRn immobilized on Streptavidin (SA) biosensors (Octet Red384); antibodies in solution, 345 to 5.39 nM; PBS-HCl pH 6.0 0.1% Tween-20; at least triplicate.
The target of experiment [4] is extracellular fragment of FcγRIIIa (158F) (UniProt P08637). As to the kind of experiment: BLI; biotinylated FcγR immobilized on Streptavidin (SA) biosensors (Octet Red384); antibodies in solution as serial dilutions; PBS pH 7.4 0.1% BSA 0.1% Tween-20; at least triplicate.
The target of experiment [5] is extracellular fragment of FcγRIIa (131H) (UniProt P12318). The experiment is described as above.
The target of experiment [6] is extracellular fragment of FcγRIIb (UniProt P31994). Described as above.
For experiment [7], the target named is extracellular fragment of FcγRIa (UniProt P12314). The experiment is described as above.
Experiment [8] has as its target T1, extracellular domain of PD-1 receptor (R&D Systems) (Homo sapiens, UniProt Q15116).
T1 construct: Programmed cell death protein 1 (PD-1), extracellular domain; also called Programmed cell death protein 1; source: bought: R&D Systems
As to the kind of experiment: SPR; PD-1 extracellular domain immobilized on a Planar Polyethylene Glycol/Carboxyl Sensor Chip (Reichert4SPR); antibodies in solution, 10; 3.33; 1.11; 0.37; 0.12 nM in PBS 0.02% Tween-20 pH 7.4; multi-step kinetics; triplicate. As to conditions: both partners purified.

extracellular fragment of FcγRIIa (131H), sequence (P12318 34-217): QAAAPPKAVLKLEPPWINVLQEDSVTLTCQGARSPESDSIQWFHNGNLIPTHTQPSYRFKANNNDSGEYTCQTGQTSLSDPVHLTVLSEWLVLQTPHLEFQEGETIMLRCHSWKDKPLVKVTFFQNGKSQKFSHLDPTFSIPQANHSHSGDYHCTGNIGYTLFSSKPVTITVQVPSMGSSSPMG
extracellular fragment of FcγRIIIa (158F), sequence (P08637 17-208): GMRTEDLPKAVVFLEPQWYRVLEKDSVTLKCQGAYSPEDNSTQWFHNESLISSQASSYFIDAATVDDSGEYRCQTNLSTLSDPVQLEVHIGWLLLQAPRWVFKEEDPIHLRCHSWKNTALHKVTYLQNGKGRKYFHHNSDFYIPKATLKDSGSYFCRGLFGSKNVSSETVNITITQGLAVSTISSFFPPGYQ
extracellular fragment of FcRn, sequence (P55899 24-297): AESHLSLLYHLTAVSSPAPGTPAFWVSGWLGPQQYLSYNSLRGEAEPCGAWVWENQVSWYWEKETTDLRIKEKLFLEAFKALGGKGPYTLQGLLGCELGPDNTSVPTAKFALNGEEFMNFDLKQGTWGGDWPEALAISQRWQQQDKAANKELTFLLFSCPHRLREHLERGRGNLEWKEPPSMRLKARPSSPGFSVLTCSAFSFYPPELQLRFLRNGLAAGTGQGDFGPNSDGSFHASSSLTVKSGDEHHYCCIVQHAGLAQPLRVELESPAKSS
extracellular fragment of FcγRIIb, sequence (P31994 43-217): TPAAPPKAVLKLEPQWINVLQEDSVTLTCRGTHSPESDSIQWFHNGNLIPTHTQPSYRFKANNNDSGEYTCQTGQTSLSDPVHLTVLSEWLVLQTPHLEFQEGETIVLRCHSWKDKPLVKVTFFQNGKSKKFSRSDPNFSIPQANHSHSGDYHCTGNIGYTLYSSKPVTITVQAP
extracellular fragment of FcγRIa, sequence (P12314 16-292): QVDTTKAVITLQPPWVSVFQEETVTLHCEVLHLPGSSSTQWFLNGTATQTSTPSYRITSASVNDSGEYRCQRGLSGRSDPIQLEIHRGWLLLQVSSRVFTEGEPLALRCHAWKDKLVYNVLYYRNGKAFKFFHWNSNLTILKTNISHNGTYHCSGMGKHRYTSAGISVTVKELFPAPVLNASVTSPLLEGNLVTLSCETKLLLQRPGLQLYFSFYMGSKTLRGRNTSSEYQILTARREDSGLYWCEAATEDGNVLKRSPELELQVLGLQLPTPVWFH
T1 sequence (Q15116 25-170): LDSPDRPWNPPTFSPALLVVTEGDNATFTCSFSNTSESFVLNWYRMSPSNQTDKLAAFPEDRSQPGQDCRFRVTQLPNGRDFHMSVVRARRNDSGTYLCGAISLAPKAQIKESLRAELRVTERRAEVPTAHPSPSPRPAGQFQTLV

For Pembrolizumab (antibody), the dissociation constant (Kd) in experiment [1] is 5.24 µM; in experiment [2], 5.17 µM.
As to Nivolumab (antibody), the Kd in experiment [3] is 0.0248 µM; in experiment [4] it was 16.6 µM; in experiment [5], 13.1 µM; in experiment [6], 0.93 µM; in experiment [7], 0.074 µM; in experiment [1] it was 8.97 µM. The molecule further registered a Kd in experiment [2] of 2 µM.

B1: Prolgolimab (antibody, V domains shown)
VH: QVQLVQSGGGLVQPGGSLRLSCAASGFTFSSYWMYWVRQVPGKGLEWVSAIDTGGGRTYYADSVKGRFAISRVNAKNTMYLQMNSLRAEDTAVYYCARDEGGGTGWGVLKDWPYGLDAWGQGTLVTVSS
VL: QPVLTQPLSVSVALGQTARITCGGNNIGSKNVHWYQQKPGQAPVLVIYRDSNRPSGIPERFSGSNSGNTATLTISRAQAGDEADYYCQVWDSSTAVFGTGTKLTVL
Turning to B1, the Kd is 0.0153 µM in experiment [3]; 12.7 µM in experiment [4]; 14.6 µM in experiment [5]; 21 µM in experiment [6]; 0.9 µM in experiment [7]; 1.33 µM in experiment [1]. This molecule registered a Kd in experiment [2] of 9.66 µM.

B2: Pembrolizumab (antibody, V domains shown)
VH: QVQLVQSGVEVKKPGASVKVSCKASGYTFTNYYMYWVRQAPGQGLEWMGGINPSNGGTNFNEKFKNRVTLTTDSSTTTAYMELKSLQFDDTAVYYCARRDYRFDMGFDYWGQGTTVTVSS
VL: EIVLTQSPATLSLSPGERATLSCRASKGVSTSGYSYLHWYQQKPGQAPRLLIYLASYLESGVPARFSGSGSGTDFTLTISSLEPEDFAVYYCQHSRDLPLTFGGGTKVEIK
notes: variable domain of the pembrolizumab heavy chain; constant region of the IgG4 heavy chain; light chain of pembrolizumab; IgG4; Whole therapeutic antibody in all assays; also called anti-PD-1 antibody; IgG4
In the case of B2, the equilibrium dissociation constant (Kd) is 0.025 µM in experiment [3]; 4.7 pM in experiment [8]; 19.9 µM in experiment [4]; 11.1 µM in experiment [5]; 8.64 µM in experiment [6]; 0.085 µM in experiment [7].

The Kd is the equilibrium constant for the complex coming apart. Read a high Kd as weaker binding.
